The experiment deals with T1, mouse serum albumin (mouse, UniProt P07724 25-608).
T1 construct: also called Mouse albumin
The experiment is described as follows: SPR Biacore 3000; mouse albumin against human/rhesus albumin as reference. A general note: In SPR one partner is held on a chip, and binding of the other changes the refractive index at the surface.

T1 sequence (P07724 25-608 limits assumed): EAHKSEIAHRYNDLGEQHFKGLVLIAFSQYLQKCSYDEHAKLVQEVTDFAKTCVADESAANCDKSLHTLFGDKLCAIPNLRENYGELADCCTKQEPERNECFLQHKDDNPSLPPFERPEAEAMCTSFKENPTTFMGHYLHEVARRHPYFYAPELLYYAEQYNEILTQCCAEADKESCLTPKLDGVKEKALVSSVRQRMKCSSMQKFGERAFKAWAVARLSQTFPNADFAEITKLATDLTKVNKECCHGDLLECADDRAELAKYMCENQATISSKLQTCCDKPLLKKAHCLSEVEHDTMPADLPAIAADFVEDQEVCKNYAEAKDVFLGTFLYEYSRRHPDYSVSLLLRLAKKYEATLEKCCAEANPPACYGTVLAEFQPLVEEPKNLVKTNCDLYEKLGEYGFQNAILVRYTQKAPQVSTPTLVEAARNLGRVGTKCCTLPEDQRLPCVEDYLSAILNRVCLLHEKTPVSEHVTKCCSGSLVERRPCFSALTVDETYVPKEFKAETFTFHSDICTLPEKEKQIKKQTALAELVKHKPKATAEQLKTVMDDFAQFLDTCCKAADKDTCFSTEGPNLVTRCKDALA

B1: PMP6A8 (ALB2) (VHH)
VHH: AVQLVESGGGLVQGGGSLRLACAASERIFDLNLMGWYRQGPGNERELVATCITVGDSTNYADSVKGRFTISMDYTKQTVYLHMNSLRPEDTGLYYCKIRRTWHSELWGQGTQVTVSS
Consider B1, for which the “factor of difference in affinity for human/rhesus versus mouse serum albumin” value was found to be 400 fold.
